Test [1] deals with Fcγ receptors. The experiment in a line: cell-based or functional assay.
Test [2] has as its target RhD antigen on RhD+ red blood cells (UniProt Q02161). The experiment in a line: flow cytometry on RhD+ red blood cells.
The target of test [3] is Recombinant soluble human FcRn (human) (UniProt P55899). As to the kind of experiment: SPR (BIAcore X100), FcRn immobilised, pH 6.0.
The target in test [4] is FcRn-p3 (fusion protein of β2 microglobulin chain and FcRn α-chain fused to bacteriophage protein p3 and CVDE protein) (UniProt P61769). The experiment in a line: ELISA, purified IgG from YB2/0, vs R593 IgG-WT. On the technique in general: In an ELISA, binding on a coated surface is turned into a signal by an enzyme label.
Sequence of FcRn-p3 (fusion protein of β2 microglobulin chain and FcRn α-chain fused to bacteriophage protein p3 and CVDE protein) (P61769 21-119, chain 1 of 2): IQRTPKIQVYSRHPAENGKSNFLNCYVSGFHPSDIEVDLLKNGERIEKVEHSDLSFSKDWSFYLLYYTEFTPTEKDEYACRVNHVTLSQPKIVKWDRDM
Sequence of FcRn-p3 (fusion protein of β2 microglobulin chain and FcRn α-chain fused to bacteriophage protein p3 and CVDE protein) (P55899 24-290, chain 2 of 2, further chain): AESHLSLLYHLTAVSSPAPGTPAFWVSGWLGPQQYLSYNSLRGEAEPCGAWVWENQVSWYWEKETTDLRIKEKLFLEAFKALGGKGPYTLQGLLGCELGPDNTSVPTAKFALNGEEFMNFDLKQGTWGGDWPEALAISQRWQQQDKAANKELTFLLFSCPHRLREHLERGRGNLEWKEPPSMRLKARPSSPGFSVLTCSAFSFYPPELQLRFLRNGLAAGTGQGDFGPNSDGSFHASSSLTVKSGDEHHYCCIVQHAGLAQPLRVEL
For test [5], the target named is FcγRI (R&D system) (human) (UniProt P12314). As to the kind of experiment: ELISA, purified IgG from YB2/0, vs R593 IgG-WT.
Sequence of FcγRI (R&D system) (human) (P12314 16-288 limits assumed): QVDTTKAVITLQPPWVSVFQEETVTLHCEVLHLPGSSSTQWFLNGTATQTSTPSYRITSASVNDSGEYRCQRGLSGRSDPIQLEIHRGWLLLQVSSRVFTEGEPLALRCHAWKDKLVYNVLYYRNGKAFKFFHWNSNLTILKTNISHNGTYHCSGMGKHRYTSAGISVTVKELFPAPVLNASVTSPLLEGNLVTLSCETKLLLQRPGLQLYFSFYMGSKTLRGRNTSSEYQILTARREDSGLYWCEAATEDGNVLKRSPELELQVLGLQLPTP
The target in test [6] is FcγRIIIaV158 (R&D system) (human) (UniProt P08637). The experiment in a line: ELISA, purified IgG from YB2/0, vs R593 IgG-WT.
Sequence of FcγRIIIaV158 (R&D system) (human) (P08637 17-208 F176V limits assumed): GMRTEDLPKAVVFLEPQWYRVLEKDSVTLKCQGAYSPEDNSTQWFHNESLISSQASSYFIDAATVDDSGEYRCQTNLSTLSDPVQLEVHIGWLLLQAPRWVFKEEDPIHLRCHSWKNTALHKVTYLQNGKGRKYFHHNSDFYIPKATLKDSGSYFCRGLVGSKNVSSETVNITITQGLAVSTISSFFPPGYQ
The target of test [7] is FcγRIIaR131 (R&D system) (human) (UniProt P12318). As to the kind of experiment: ELISA, purified IgG from YB2/0, vs R593 IgG-WT.
Sequence of FcγRIIaR131 (R&D system) (human) (P12318 36-218 H167R limits assumed): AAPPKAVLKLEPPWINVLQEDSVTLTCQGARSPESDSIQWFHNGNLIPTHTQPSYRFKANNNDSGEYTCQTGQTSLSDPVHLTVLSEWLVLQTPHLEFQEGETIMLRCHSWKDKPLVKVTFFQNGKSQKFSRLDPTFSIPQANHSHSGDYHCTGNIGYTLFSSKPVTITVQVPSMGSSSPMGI
Test [8] addresses FcγRIIb (R&D system) (human) (UniProt P31994). As to the kind of experiment: ELISA, purified IgG from YB2/0, vs R593 IgG-WT.
Test [9] has as its target FcγRIIaH131 (PX Therapeutics, His-tagged) (human) (UniProt P12318). As to the kind of experiment: ELISA, purified IgG from YB2/0, vs R593 IgG-WT.
Test [10] deals with FcγRIIIaF158 (PX Therapeutics, His-tagged) (human) (UniProt P08637). The experiment in a line: ELISA, purified IgG from YB2/0, vs R593 IgG-WT.
Sequence of FcγRIIIaF158 (PX Therapeutics, His-tagged) (human) (P08637 17-208 limits assumed): as the sequence (P08637 17-208 F176V limits assumed) above, with V160F counted along it
The target in test [11] is FcRn-p3 (fusion protein of β2 microglobulin chain and FcRn α-chain fused to bacteriophage protein p3 and CVDE protein) (UniProt P61769). The experiment in a line: ELISA, purified IgG from YB2/0, vs parent R593-256N/378V/383N/434Y.
In test [12] the target is FcγRI (R&D system) (human) (UniProt P12314). The description is as above.
The target in test [13] is FcγRIIIaV158 (R&D system) (human) (UniProt P08637). Described as above.
In test [14] the target is FcγRIIaR131 (R&D system) (human) (UniProt P12318). The test is described as above.
Test [15] concerns the target FcγRIIb (R&D system) (human) (UniProt P31994). The description is as above.
Test [16] concerns the target FcγRIIaH131 (PX Therapeutics, His-tagged) (human) (UniProt P12318). The description is as above.
The target in test [17] is FcγRIIIaF158 (PX Therapeutics, His-tagged) (human) (UniProt P08637). The test is described as above.
Test [18] has as its target Recombinant soluble human FcRn (human) (UniProt P55899). The experiment in a line: SPR, FcRn immobilised, pH 6.0; reference R593.
For test [19], the target named is FcRn-p3 (fusion protein of β2 microglobulin chain and FcRn α-chain fused to bacteriophage protein p3 and CVDE protein) (UniProt P61769). As to the kind of experiment: ELISA, purified IgG from YB2/0, vs parent R593-259I/315D/434Y.
The target of test [20] is FcγRI (R&D system) (human) (UniProt P12314). The test is described as above.
The target in test [21] is FcγRIIIaV158 (R&D system) (human) (UniProt P08637). The description is as above.
The target of test [22] is FcγRIIaR131 (R&D system) (human) (UniProt P12318). The test is described as above.
In test [23] the target is FcγRIIb (R&D system) (human) (UniProt P31994). The test is described as above.
Sequence of FcγRIIb (R&D system) (human) (P31994 46-217 limits assumed): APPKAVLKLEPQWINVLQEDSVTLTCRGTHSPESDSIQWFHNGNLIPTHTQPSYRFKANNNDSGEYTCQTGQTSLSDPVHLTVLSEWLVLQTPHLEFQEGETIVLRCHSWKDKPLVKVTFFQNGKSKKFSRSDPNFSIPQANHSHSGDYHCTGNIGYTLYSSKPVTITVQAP
Test [24] deals with FcγRIIaH131 (PX Therapeutics, His-tagged) (human) (UniProt P12318). The description is as above.
Sequence of FcγRIIaH131 (PX Therapeutics, His-tagged) (human) (P12318 34-217 limits assumed): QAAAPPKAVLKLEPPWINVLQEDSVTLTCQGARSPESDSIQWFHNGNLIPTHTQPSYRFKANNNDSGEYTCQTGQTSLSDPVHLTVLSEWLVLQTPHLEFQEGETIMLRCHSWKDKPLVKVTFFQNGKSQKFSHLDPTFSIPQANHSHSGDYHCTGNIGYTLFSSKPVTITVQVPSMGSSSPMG
Test [25] addresses FcγRIIIaF158 (PX Therapeutics, His-tagged) (human) (UniProt P08637). Described as above.

pKd: −log10 of the molar value.

Sequence of Recombinant soluble human FcRn (human) (P55899 24-290 limits assumed, chain 1 of 2): as the sequence (P55899 24-290, chain 2 of 2, further chain) above
Sequence of Recombinant soluble human FcRn (human) (P61769 21-119 limits assumed, chain 2 of 2, further chain): as the sequence (P61769 21-119, chain 1 of 2) above
Sequence of RhD antigen on RhD+ red blood cells (Q02161 2-417 limits assumed): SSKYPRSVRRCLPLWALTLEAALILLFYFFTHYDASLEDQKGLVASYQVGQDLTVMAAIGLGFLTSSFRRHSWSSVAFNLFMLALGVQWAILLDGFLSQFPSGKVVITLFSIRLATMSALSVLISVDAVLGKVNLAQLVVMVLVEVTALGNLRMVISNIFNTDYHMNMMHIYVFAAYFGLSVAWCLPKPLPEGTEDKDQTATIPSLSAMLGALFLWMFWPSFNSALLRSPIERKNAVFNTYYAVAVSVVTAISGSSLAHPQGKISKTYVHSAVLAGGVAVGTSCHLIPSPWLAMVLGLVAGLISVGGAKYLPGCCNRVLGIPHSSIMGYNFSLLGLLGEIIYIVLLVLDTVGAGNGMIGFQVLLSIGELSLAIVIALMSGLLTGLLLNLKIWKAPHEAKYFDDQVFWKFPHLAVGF

Turning to “R593 anti-RhD+ IgG1 variant 256N/294Del/378V/383N/434Y (antibody)”, the ADCC EC50 (ng/ml), lysis of RhD+ red cells in test [1] is 75.9 ng/mL. Further, the ADCC Max. Lysis (%) in test [1] is 6%. The Ag binding MFI (Arbitrary Unit) in [2] was found to be 44.7. Moreover, the pKd – broadly, the Kd on a negative log10 scale, so that one unit is a factor of ten – in test [3] is 8.37. Besides, the Ratio/IgG-WT in test [4] is 7.48; in test [5], 0.12; in [6], 0.1; in [7], 0.17; in test [8] it was 0.27; in test [9], 0.17. Moreover, the Ratio/IgG-WT in test [10] is 0.1. Further, the ratio to the IgG1 without 294Del in test [11] stood at 1; in test [12], 0.05; in test [13] it was 0.1; in test [14], 0.16; in test [15], 0.17; in test [16], 0.17. In addition, the ratio to the IgG1 without 294Del in test [17] amounted to 0.11. In addition, the Ratio WT/IgG (KD) in test [18] came to 44.9.

Regarding “R593 anti-RhD+ IgG1 variant 259I/294Del/315D/434Y (antibody)”, the ADCC EC50 (ng/ml), lysis of RhD+ red cells in test [1] was determined as 75.9 ng/mL. Besides, the ADCC Max. Lysis (%) in [1] was determined as 4%. Besides, the Ag binding MFI (Arbitrary Unit) in test [2] was 47.9. Besides, the ratio to the IgG1 without 294Del in [19] is 0.91; in test [20], 0.12; in [21] it was 0.07; in test [22] it was 0.11; in test [23] it was 0.13; in test [24], 0.11. Also, the ratio to the IgG1 without 294Del in test [25] worked out at 0.07. Besides, the pKd in test [3] was 7.69. In addition, the Ratio/IgG-WT in [4] stood at 7.19; in [5], 0.13; in test [6], 0.07; in test [7], 0.12; in test [8], 0.18; in test [9] it was 0.1. Further, the Ratio/IgG-WT in test [10] amounted to 0.07. In addition, in test [18], the Ratio WT/IgG (KD) came out at 9.41.

Values taken from patent publication US20140378663A1.
